Experimental data published in PMC5855711.

How the values were obtained:
Details in all cases: remark: other sources report otherwise
[1] = molecular target: T1, human recombinant HSP60 (without mitochondrial signal sequence) (human), P10809; assay: SEC; Superdex 200 10/300 GL, 0.41 μM HSP60 or GroEL, 0.1 M NaCl, 5% glycerol, 50 mM HEPES-KOH pH 7.4, no nucleotide; size from a calibration curve
[2] = molecular target: T1, human recombinant HSP60 (without …); assay: transmission electron microscopy (uranyl acetate stain); no nucleotide; HSP60 0.1 μM alone or with HSP10 0.2 μM, or GroEL 0.1 μM with GroES 0.2 μM, buffer D (10 mM MgCl2, 20 mM KCl, 1 mM DTT, 50 mM HEPES-KOH pH 7.4), 25 °C, 10 min
[3] = molecular target: T1, human recombinant HSP60 (without …); assay: small angle X-ray scattering (SAXS); 1 mM ATP; 3.0 mg/mL HSP60 or GroEL with various concentrations of co-chaperone, buffer D, 25 °C; self-association: single ring (7) to double ring (14)
[4] = molecular target: T1, human recombinant HSP60 (without …); assay: transmission electron microscopy (uranyl acetate stain); 1 mM ADP; HSP60 0.1 μM alone or with HSP10 0.2 μM, buffer D, 25 °C, 10 min
[5] = molecular target: T1, human recombinant HSP60 (without …); assay: transmission electron microscopy (uranyl acetate stain); 1 mM ATP; HSP60 (wild type or D398A) 0.1 μM alone or with HSP10 0.2 μM, or GroEL 0.1 μM with GroES 0.2 μM, buffer D, 25 °C, 10 min; more than 500 side views counted, three experiments; self-association: single ring (7) to double ring (14)

B1: human recombinant HSP60 (without mitochondrial signal sequence), P10809 27-573 (natural protein)
chain: AKDVKFGADARALMLQGVDLLADAVAVTMGPKGRTVIIEQSWGSPKVTKDGVTVAKSIDLKDKYKNIGAKLVQDVANNTNEEAGDGTTTATVLARSIAKEGFEKISKGANPVEIRRGVMLAVDAVIAELKKQSKPVTTPEEIAQVATISANGDKEIGNIISDAMKKVGRKGVITVKDGKTLNDELEIIEGMKFDRGYISPYFINTSKGQKCEFQDAYVLLSEKKISSIQSIVPALEIANAHRKPLVIIAEDVDGEALSTLVLNRLKVGLQVVAVKAPGFGDNRKNQLKDMAIATGGAVFGEEGLTLNLEDVQPHDLGKVGEVIVTKDDAMLLKGKGDKAQIEKRIQEIIEQLDVTTSEYEKEKLNERLAKLSDGVAVLKVGGTSDVEVNEKKDRVTDALNATRAAVEEGIVLGGGCALLRCIPALDSLTPANEDQKIGIEIIKRTLKIPAMTIAKNAGVEGSLIVEKIMQSSSEVGYDAMAGDFVNMVEKGIIDPTKVVRTALLDAAGVASLLTTAEVVVTEIPKEEKDPGMGAMGGMGGGMGGGMF
With B1 the stoichiometry N [1] was 7.3 subunits, the stoichiometry N [2] was 7 and the fraction of double-ring HSP60 (curve fitting, HSP60+ATP) [3] was 0.14. It also gave a fraction of single-ring HSP60 (curve fitting, HSP60+ATP) [3] of 0.86, a fraction of single-ring HSP60 without HSP10 (curve fitting, HSP10 and ATP present) [3] of 0.09 and a percent of HSP60 in double rings (from I(0)/C, ATP, no HSP10) [3] of 50%. For the same binder, the stoichiometry N [4] was 7, the percent of HSP60-containing complexes with the double-ring structure (with HSP10 and ATP) [5] was 80% and the percent of HSP60 in double rings, football-type and bullet-type (with HSP10 and ATP) [5] was 70%. The percent of side views that are HSP60 (7), single ring alone (with HSP10 and ATP) [5] was 10% and the percent of side views that are HSP60 (14), double ring alone (with HSP10 and ATP) [5] was 2%.
